The data set can be described thus: collision cross section of modified peptide (TIMS, N2, iRT-aligned); higher = larger / more extended gas-phase ion. In outline:
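Collision cross section values rest on the Mason-Schamp equation applied to calibrated, run-aligned mobility data from synthetic peptides. Mobility (1/K0) was calibrated with three reference ions and aligned per run to the median iRT peptide deviation, and 1–3 technical replicates of the most abundant feature per charge state were averaged. Data came from a timsTOF Pro/HT in dda-PASEF mode (nitrogen, ~2.4 mbar) after a 120-min nanoflow C18 gradient at 60 °C.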

Setting [1] is: charge state: 2, modification: Formyl.
Where [2] appears, read: charge state: 3, modification: Formyl.
The mark [3] stands for this setting: charge state: 3, modification: GlyGly (K).
The mark [4] stands for this setting: charge state: 2, modification: Dimethyl (K).
[5] abbreviates: charge state: 3, modification: Dimethyl (K).
Setting [6] is: charge state: 2, modification: Phospho (Y).
Where [7] appears, read: charge state: 3, modification: Trimethyl (K).
Where [8] appears, read: charge state: 2, modification: GlyGly (K).
Setting [9] is: charge state: 2, modification: Biotin.
Where [10] appears, read: charge state: 2, modification: hydroxyisobutyryl.
The mark [11] stands for this setting: charge state: 3, modification: hydroxyisobutyryl.

± gives the standard deviation.

On to “IINEPTAAAIAYGLDKK [_IINEPTAAAIAYGLDK(Formyl)K_]”, for which the collision cross section was 458.24 ± 1.2 Å² under setting [1] and 548.84 ± 1.7 Å² under setting [2].

Substance “SPPLPEHQKIPCNSAEPK [_SPPLPEHQK(GlyGly (K))IPCNSAEPK_]” registered a collision cross section under setting [3] of 516.26 Å².

For “LEEVTGKLQVAR [_LEEVTGK(Dimethyl (K))LQVAR_]”, the collision cross section was 394.61 ± 0.25 Å² under setting [4] and 471.08 ± 2.1 Å² under setting [5].

In the case of “SSFAYKDQNENR [_SSFAYK(Dimethyl (K))DQNENR_]”, the collision cross section is 406.82 ± 0.47 Å² under setting [4] and 455.28 ± 0.51 Å² under setting [5].

As for “YIGTGHADTTK [_Y(Phospho (Y))IGTGHADTTK_]”, the collision cross section under setting [6] is 372.65 ± 0.75 Å².

On to “ANLEKAQAELVGTADEATR [_ANLEK(Trimethyl (K))AQAELVGTADEATR_]”, for which, under setting [7], the collision cross section worked out at 528.43 ± 0.88 Å².

On to LQDVSGQLSSSKK [_LQDVSGQLSSSK(Formyl)K_], for which the collision cross section under setting [1] was 394.61 ± 0.21 Å².

In the case of “GEVGAGAGPGAQAGPSAKR [_GEVGAGAGPGAQAGPSAK(Crotonyl)R_]”, the collision cross section was 426.44 ± 0.55 Å² (charge state: 2, modification: Crotonyl) and 497.45 ± 1.2 Å² (charge state: 3, modification: Crotonyl).

As to TSYAQHQQVR [_TSY(Nitro (Y))AQHQQVR_], the collision cross section is, setting by setting: (charge state: 2, modification: Nitro (Y)) 366.98 ± 0.94 Å²; (charge state: 3, modification: Nitro (Y)) 458.71 ± 1.2 Å².

Consider LGNDFHTNKR [_LGNDFHTNK(GlyGly (K))R_], for which the collision cross section reads like this: under setting [8], 384.34 ± 1.5 Å²; under setting [3], 447.63 ± 1.2 Å².

Regarding “GLPGEPGPRGLLGPK [_GLP(Hydroxyproline)GEPGPRGLLGPK_]”, where the note is “charge state: 3, modification: Hydroxyproline”, the collision cross section is reported as 506.02 ± 0.37 Å².

On to YEATSVQQK [_Y(Phospho (Y))EATSVQQK_], for which the collision cross section under setting [6] is reported as 348.75 ± 0.066 Å².

With “VGIDTPDIDIHGPEGKLK [_VGIDTPDIDIHGPEGK(Formyl)LK_]”, the collision cross section amounted to 485.77 ± 1.5 Å² under setting [1] and 533.35 ± 1.3 Å² under setting [2].

As to SSFAYKDQNENR [_SSFAYK(Biotin)DQNENR_], the collision cross section runs as follows: under setting [9], 421.15 ± 1.9 Å²; (charge state: 3, modification: Biotin) 490.01 ± 0.34 Å².

Consider “STGLELETPSLVPVKK [_STGLELETPSLVPVK(Formyl)K_]”, for which the collision cross section is listed as 431.64 ± 1.2 Å² under setting [1] and 516.5 ± 3 Å² under setting [2].

On to “TEVLSPNSKVESK [_TEVLSPNSK(GlyGly (K))VESK_]”, for which the collision cross section under setting [8] came out at 404.73 ± 5.7 Å² and the collision cross section under setting [3] was 492.13 ± 0.88 Å².

For “SITHSTVGSKGEK [_SITHSTVGSK(GlyGly (K))GEK_]”, the collision cross section under setting [8] is listed as 404.23 ± 1.4 Å² and the collision cross section under setting [3] stood at 469.84 ± 1.3 Å².

“DESFLGKLGGTLAR [_DESFLGK(hydroxyisobutyryl)LGGTLAR_]”: the collision cross section reads like this: under setting [10], 419.07 ± 0.83 Å²; under setting [11], 498.29 ± 2.3 Å².

In the case of “PSVGSQSNQAGQGKR [_PSVGSQSNQAGQGK(Malonyl)R_]”, the collision cross section reads like this: (charge state: 2, modification: Malonyl) 406.87 ± 1.8 Å²; (charge state: 3, modification: Malonyl) 446.38 Å².

Under setting [9], SLFFGGKGAPLQR [_SLFFGGK(Biotin)GAPLQR_] showed a collision cross section of 419.13 Å².

As for “SLEEEGAAHSGKR [_SLEEEGAAHSGK(hydroxyisobutyryl)R_]”, the collision cross section by setting is: under setting [10], 421.1 ± 1.9 Å²; under setting [11], 479.68 ± 2.1 Å².

As for “ASAISIKLGSSK [_ASAISIK(Trimethyl (K))LGSSK_]”, the collision cross section is given as 386.31 ± 1.1 Å² (charge state: 2, modification: Trimethyl (K)) and 448.52 ± 3.3 Å² under setting [7].

In the case of “LEEVTGKLQVAR [_LEEVTGK(Gluratylation)LQVAR_]”, the collision cross section by setting is: (charge state: 2, modification: Glutarylation) 400.05 ± 0.12 Å²; (charge state: 3, modification: Glutarylation) 468.97 Å².

Under setting [6], YEITEQR [_Y(Phospho (Y))EITEQR_] had a collision cross section of 328.08 ± 0.068 Å².

Regarding “ISALQGKLSK [_ISALQGK(hydroxyisobutyryl)LSK_]”, the collision cross section under setting [10] is 359.85 ± 0.79 Å².

Source of the values: the supplement of paper PMC10598134.
